# Data: paper PMC5559466
# Biological target: T1, His6-Sll0649 (OmpR family response regulator) (Synechocystis sp. PCC 6803) (UniProt P72948)
# T1 sequence: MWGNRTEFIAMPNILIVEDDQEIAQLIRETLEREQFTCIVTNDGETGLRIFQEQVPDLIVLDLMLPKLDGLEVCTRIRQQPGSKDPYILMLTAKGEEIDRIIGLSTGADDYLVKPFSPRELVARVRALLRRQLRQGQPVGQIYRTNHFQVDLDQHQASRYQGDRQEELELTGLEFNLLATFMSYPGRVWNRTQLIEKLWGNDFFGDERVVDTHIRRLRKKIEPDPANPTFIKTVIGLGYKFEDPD
# Experiment: EMSA
# Settings: EMSA: 20 mM Tris-base pH 7.9, 1 mM DTT, 10 mM MgCl2, 0.2 mg/mL BSA, 5% glycerol, 1 mg/mL poly(dI-dC), about 10 ng probe, 20 min at 25 C, 6% native PAGE
sequence,measurement,value
AGCCAGTGGCGATAAGTCAGATCCTAGACCCCGACTTTTTTCCAAAATCAGAATAAATACAAAAAAAAGCCCTCTAAAACAATGACCTTGTCCTGAAAAACTGACACAAAAATTTCATACCGTCGTCATAGCCCTGTCATACTCGTCCCCTACATTAATAAATGTCAGCCCAAGCCGTTTCTTATCGCCACTGGCT (double strand) [Pslr1204 EMSA probe],binding,no binding
